Three molecules from patent US20260234246A1 (CAEDO ONCOLOGY, published 2026) can be followed below.

Experiment [1] has as its target T1, recombinant CD47 (recCD47), SinoBiological 12283-H27H-B, biotinylated (human, UniProt Q08722 19-139, biotinylated (AVI-tag)).
T1 construct: Bought protein, 17 kDa; At 17 kDa it can only be a part of it; also called recombinant biotinylated CD47; not shown: C-terminal His- and AVI-tag
Description: SPR Biacore S200, multi-cycle (top 50 nM), recCD47 on SA chip 1330 RU, 1:1 model.

For experiment [2], the target named is T1, recombinant CD47 (recCD47), …. Description: SPR Biacore S200, single-cycle (top 80 nM), recCD47 on SA chip 1330 RU, 1:1 model. On the technique in general: In SPR one partner is held on a chip, and binding of the other changes the refractive index at the surface.
For experiment [3], the target named is T2, human CD47 on the surface of cells (human cancer cell lines and human red blood cells) (human, UniProt Q08722 19-323).
T2 construct: Native CD47 of human cell lines (Jurkat, Reh, CCRF-CEM and others) and of RBCs from healthy donors; also called cell-surface CD47
Nature of the experiment: flow cytometry, FITC-conjugated antibody on CCRF-CEM cells.
Description: (§1) PBS-washed cancer cell lines or RBCs were pelleted and washed with washing buffer (3% (w/v) BSA, 1% (w/v) sodium azide in PBS) and incubated with Human BD Fc Block for 10 minutes before being plated into a round-bottom 96 well plate (2.5×10⁵ cells per well). Antibodies were conjugated with FITC using the FITC conjugation kit from Abcam. […] All samples were prepared in duplicates. Cells were washed three times and resuspended in cold washing buffer. Cells were kept on ice until analyses by flow cytometry. Excitation wavelength FITC: 488 nm, detection: 530/30 nm.
4-parameter curve fitting was performed using GraphPad Prism

The target in experiment [4] is T1, recombinant CD47 (recCD47), …. Nature of the experiment: SPR Biacore S200, single-cycle, recCD47 on SA chip 700 RU, antibody as analyte, 25 C, 1:1 model.
Experiment [5] has the same target. Nature of the experiment: SPR Biacore S200, single-cycle (top 80 nM), recCD47 on SA chip 1330 RU, antibody as analyte, 1:1 model.
The target is the same in experiment [6]. Description: SPR Biacore S200, multi-cycle (top 50 nM), recCD47 on SA chip 1330 RU, antibody as analyte, 1:1 model.
For experiment [7] the target is unchanged. Description: SPR Biacore S200, multi-cycle (top 50 nM), recCD47 on SA chip 1330 RU, 1:1 model; * off-rate difficult to determine.
For experiment [8] the target is unchanged. Description: SPR Biacore S200, single-cycle (top 80 nM), recCD47 on SA chip 1330 RU, 1:1 model; * off-rate difficult to determine.
For experiment [9] the target is unchanged. Description: SPR Biacore S200, single-cycle, recCD47 on SA chip 100 RU, fragment as analyte, 25 C, 1:1 model.
Experiment [10] deals with T2, human CD47 on the surface of cells …. Description: flow cytometry, FITC-mCO-1 on SUP-T1 cells. On the technique in general: Flow cytometry measures light scatter and fluorescence of single cells or particles in a stream.
Description: as §1
The target is the same in experiment [11]. Nature of the experiment: flow cytometry, FITC-mCO-1 on MOLT-4 cells.
Experiment [12] has the same target. Description: flow cytometry, FITC-mCO-1 on CCRF-CEM cells.
Experiment [13] has the same target. Description: flow cytometry, FITC-mCO-1 on TCCSUP cells.
Description: as §1
The target is the same in experiment [14]. Nature of the experiment: flow cytometry, FITC-mCO-1 on Reh cells.
Experiment [15] shares this target. Description: flow cytometry, FITC-mCO-1 on HT-1197 cells.
Description: as §1
The target is the same in experiment [16]. Nature of the experiment: flow cytometry, FITC-mCO-1 on HL-60 cells.
For experiment [17] the target is unchanged. Description: flow cytometry, FITC-mCO-1 on A-172 cells.
The target is the same in experiment [18]. Description: flow cytometry, FITC-mCO-1 on T24 cells.
Description: as §1
Experiment [19] shares this target. Description: flow cytometry, FITC-mCO-1 on human RBCs (FIG. 1E).
Description: as §1
For experiment [20] the target is unchanged. Nature of the experiment: flow cytometry, FITC-mCO-1 on U-87-MG cells.
Experiment [21] has the same target. Nature of the experiment: flow cytometry, FITC-mCO-1 on SW780 cells.
The target is the same in experiment [22]. Description: flow cytometry, FITC-mCO-1 on SW1088 cells.
Description: as §1
Experiment [23] has the same target. Nature of the experiment: flow cytometry, FITC-mCO-1 on Raji cells.
For experiment [24] the target is unchanged. Description: flow cytometry, FITC-mCO-1 on K-562 cells.
Description: as §1
The target is the same in experiment [25]. Description: flow cytometry, FITC-mCO-1 on HT-1376 cells.
For experiment [26] the target is unchanged. Description: flow cytometry, FITC-mCO-1 on UM-UC-3 cells.
Experiment [27] shares this target. Description: flow cytometry, FITC-mCO-1 on U-118-MG cells.
Description: as §1
Experiment [28] has the same target. Description: flow cytometry on human RBCs (same experiment as paragraph 345, printed more exactly).
Experiment [29] shares this target. Description: flow cytometry, FITC-mCO-1 on H4 cells.
Description: as §1

T1 sequence (Q08722 19-139 limits assumed): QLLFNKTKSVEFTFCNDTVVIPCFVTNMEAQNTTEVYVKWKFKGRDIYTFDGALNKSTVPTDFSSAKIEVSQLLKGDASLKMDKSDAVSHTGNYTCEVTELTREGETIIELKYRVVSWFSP
T2 sequence (Q08722 19-323 limits assumed): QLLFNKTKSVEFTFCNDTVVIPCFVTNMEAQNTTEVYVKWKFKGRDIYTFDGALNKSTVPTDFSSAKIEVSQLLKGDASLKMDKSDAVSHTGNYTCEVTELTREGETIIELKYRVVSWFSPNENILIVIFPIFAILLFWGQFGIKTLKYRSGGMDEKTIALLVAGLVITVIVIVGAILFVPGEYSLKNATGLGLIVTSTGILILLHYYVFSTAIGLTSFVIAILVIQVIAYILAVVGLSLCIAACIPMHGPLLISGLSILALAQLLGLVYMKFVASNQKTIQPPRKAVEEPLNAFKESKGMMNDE

B1: CO-1.1 antibody (chimeric CO-1 IgG1) (antibody)
heavy: not shown
light: DVVMTQTPLSLPVSLGDQASISCRSSQSLVHSNGKTYLHWYLQKPGQSPKLLIYRVSNRFSGVPDRFSGSGSGTDFTLKISRIEAEDLGVYFCSQSTHVPFTFGSGTKLEIKRTVAAPSVFIFPPSDEQLKSGTASVVCLLNNFYPREAKVQWKVDNALQSGNSQESVTEQDSKDSTYSLSSTLTLSKADYEKHKVYACEVTHQGLSSPVTKSFNRGEC
notes: Chimeric: mouse variable domains of mCO-1 with human IgG1 constant regions; also called SC-CO-1; MC-CO-1
The term Kd denotes a measure of binding affinity in units of concentration. As a reminder, the EC50 is the midpoint of the concentration-response curve. A low value points to greater potency. In general, koff refers to the first-order rate constant of dissociation. What is called kon is a measure of how fast the partners come together. On to B1, for which the Kd is < 1 pM in experiment [1], < 1 pM in experiment [2], 0.04 pM in [7] and < 1 pM in [8]. Moreover, the concentration giving a half-maximal response (EC50) in experiment [3] was determined as 0.0283 ng/mL. Besides, the off-rate constant (koff) in experiment [4] is 4.7e-06 s⁻¹. In addition, the kon in experiment [4] was determined as 1.4e+06 M⁻¹ s⁻¹; in experiment [5], 500000 M⁻¹ s⁻¹; in experiment [6], 900000 M⁻¹ s⁻¹.

B2: CO-1 F(ab')2 antibody (other)
heavy: QIQLVQSGPELKKPGETVKISCKASGYTFTNFGMHWVKQAPGKGLKWMGWINTYTGEPTYTDDFKGRFAFSLETSASTAYLQINSLKNEDTATFFCTRGDYRYGDSWGQGTTLTVSSASTKGPSVFPLAPSSKSTSGGTAALGCLVKDYFPEPVTVSWNSGALTSGVHTFPAVLQSSGLYSLSSVVTVPSSSLGTQTYICNVNHKPSNTKVDKKVEPKSCDKTHTCPPCPAPELLG
light: B1 light
notes: F(ab')2 fragment, divalent for CD47, based on mCO-1; also called CO F(ab')2; CO-F(ab')2
On to B2, for which, in experiment [9], the off-rate constant (koff) amounted to 4.5e-05 s⁻¹ and the on-rate (kon) amounted to 6.9e+06 M⁻¹ s⁻¹.

B3: murine CO-1 (mCO-1) antibody (antibody, V domains shown)
VH: QIQLVQSGPELKKPGETVKISCKASGYTFTNFGMHWVKQAPGKGLKWMGWINTYTGEPTYTDDFKGRFAFSLETSASTAYLQINSLKNEDTATFFCTRGDYRYGDSWGQGTTLTVSS
VL: DVVMTQTPLSLPVSLGDQASISCRSSQSLVHSNGKTYLHWYLQKPGQSPKLLIYRVSNRFSGVPDRFSGSGSGTDFTLKISRIEAEDLGVYFCSQSTHVPFTFGSGTKLEIK
notes: Full length mouse IgG1 kappa antibody from a hybridoma
For B3, the half-maximal effective concentration (EC50) in experiment [10] was determined as 4.25 ng/mL; in experiment [11], 10.6 ng/mL; in [12], 1.08 ng/mL; in experiment [13] it was 2400 ng/mL; in experiment [14], 2800 ng/mL; in [15] it was 786 ng/mL. Moreover, the EC50 in [16] was found to be 592 ng/mL; in [17], 3500 ng/mL; in [18], 900 ng/mL; in experiment [19], 40 ng/mL; in experiment [20], 2990 ng/mL; in [21], 334 ng/mL. In addition, the EC50 turned out to be 1170 ng/mL in experiment [22]; 26.7 ng/mL in experiment [23]; 354 ng/mL in [24]; 286 ng/mL in experiment [25]; 55.3 ng/mL in experiment [26]; 404 ng/mL in experiment [27]. Further, the results for the EC50 in experiment [28] and in experiment [29] were 44 ng/mL and 2460 ng/mL, respectively.
